Experimental data published in the supplement of paper PMC10567573.

B1: ZNF263 (parent)
chain: VPGTQVGQGGKLWDPSVQSCKEGL
B2: TMEM175 (parent)
chain: ALLHQAETLQPSVWFGGREHVLMF
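Also: lentivirally expressed fusions sorted by FACS into six bins by GFP to DsRed ratio, PSI derived from sequencing read proportions per bin multiplied by bin number.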

Variants of: B1
Experiment: protein stability index of a GFP-peptide fusion (GPS, HEK-293T) (PSI 1-6); higher = more stable
Conditions: c terminus: a fixed tail appended
VPGTQVGQGGKLWDPSVQSCAEGL [K21A] showed a protein stability index of 3.91.
For VPGTQVGQGGKLWDPSVQSCQEGL [K21Q], the protein stability index was 4.29.
With VPGTQVGQGGKLWDPSVQSCDEGL [K21D] the protein stability index was 4.79.
With VPGTQVGQGGKLWDPSVQSCVEGL [K21V] the protein stability index was 3.89.
Variant VPGTQVGQGGKLWDPSVQSCSEGL [K21S] has a protein stability index of 3.72.
For VPGTQVGQGGKLWDPSVQSCHEGL [K21H], the protein stability index was 4.05.
With VPGTQVGQGGKLWDPSVQSCWEGL [K21W] the protein stability index was 3.52.
VPGTQVGQGGKLWDPSVQSCGEGL [K21G] gave a protein stability index of 3.99.
In the case of VPGTQVGQGGKLWDPSVQSCTEGL [K21T], the protein stability index is reported as 5.17.
Variant VPGTQVGQGGKLWDPSVQSCMEGL [K21M] has a protein stability index of 3.92.
For VPGTQVGQGGKLWDPSVQSCEEGL [K21E], the protein stability index was 4.78.
Work on VPGTQVGQGGKLWDPSVQSCCEGL [K21C] yielded a protein stability index of 4.64.
With VPGTQVGQGGKLWDPSVQSCKSGL [E22S] the protein stability index was 3.95.
VPGTQVGQGGKLWDPSVQSCKFGL [E22F] gave a protein stability index of 2.58.
With VPGTQVGQGGKLWDPSVQSCKTGL [E22T] the protein stability index was 4.42.
VPGTQVGQGGKLWDPSVQSCKDGL [E22D] showed a protein stability index of 4.25.
For VPGTQVGQGGKLWDPSVQSCKPGL [E22P], the protein stability index was 3.46.
With VPGTQVGQGGKLWDPSVQSCKHGL [E22H] the protein stability index was 3.98.
With VPGTQVGQGGKLWDPSVQSCKAGL [E22A] the protein stability index was 3.06.
Variant VPGTQVGQGGKLWDPSVQSCKRGL [E22R] has a protein stability index of 4.05.
Variant VPGTQVGQGGKLWDPSVQSCKLGL [E22L] has a protein stability index of 2.96.
For VPGTQVGQGGKLWDPSVQSCKMGL [E22M], the protein stability index was 3.13.
Work on VPGTQVGQGGKLWDPSVQSCKQGL [E22Q] yielded a protein stability index of 3.84.
Variant VPGTQVGQGGKLWDPSVQSCKWGL [E22W] has a protein stability index of 1.99.
In the case of VPGTQVGQGGKLWDPSVQSCKIGL [E22I], the protein stability index is reported as 3.23.
Work on VPGTQVGQGGKLWDPSVQSCKVGL [E22V] yielded a protein stability index of 3.79.
In the case of VPGTQVGQGGKLWDPSVQSCKGGL [E22G], the protein stability index is reported as 4.34.
For VPGTQVGQGGKLWDPSVQSCKKGL [E22K], the protein stability index was 4.49.
VPGTQVGQGGKLWDPSVQSCKYGL [E22Y] showed a protein stability index of 3.07.
In the case of VPGTQVGQGGKLWDPSVQSCKNGL [E22N], the protein stability index is reported as 3.64.
In the case of VPGTQVGQGGKLWDPSVQSCKCGL [E22C], the protein stability index is reported as 3.42.
With VPGTQVGQGGKLWDPSVQSCKEGV [L24V] the protein stability index was 4.35.
Variant VPGTQVGQGGKLWDPSVQSCKEGS [L24S] has a protein stability index of 4.99.
Work on VPGTQVGQGGKLWDPSVQSCKEGE [L24E] yielded a protein stability index of 5.18.
For VPGTQVGQGGKLWDPSVQSCKEGW [L24W], the protein stability index was 4.32.
For VPGTQVGQGGKLWDPSVQSCKEGA [L24A], the protein stability index was 4.69.
Variant VPGTQVGQGGKLWDPSVQSCKEGF [L24F] has a protein stability index of 4.11.
Variant VPGTQVGQGGKLWDPSVQSCKEGY [L24Y] has a protein stability index of 3.73.
VPGTQVGQGGKLWDPSVQSCKEGH [L24H] showed a protein stability index of 4.27.
VPGTQVGQGGKLWDPSVQSCKEGP [L24P] showed a protein stability index of 4.79.
VPGTQVGQGGKLWDPSVQSCKEGN [L24N] gave a protein stability index of 4.76.
With VPGTQVGQGGKLWDPSVQSCKEGR [L24R] the protein stability index was 4.92.
Work on VPGTQVGQGGKLWDPSVQSCKEGC [L24C] yielded a protein stability index of 3.9.
With VPGTQVGQGGKLWDPSVQSCKEGI [L24I] the protein stability index was 4.22.
VPGTQVGQGGKLWDPSVQSCKEGQ [L24Q] gave a protein stability index of 5.03.
VPGTQVGQGGKLWDPSVQSCKEGM [L24M] gave a protein stability index of 4.09.
Work on VPGTQVGQGGKLWDPSVQSCKEGT [L24T] yielded a protein stability index of 4.26.
With VPGTQVGQGGKLWDPSVQSCKEGD [L24D] the protein stability index was 5.51.
For VPGTQVGQGGKLWDPSVQSCKEGG [L24G], the protein stability index was 4.49.
With VPGTQVGQGGKLWDPSVQSCKEGK [L24K] the protein stability index was 4.8.

Variants of: B2
Experiment: as above
Conditions: c terminus: a fixed tail appended
ALNHQAETLQPSVWFGGREHVLMF [L3N] showed a protein stability index of 1.04.
For ALSHQAETLQPSVWFGGREHVLMF [L3S], the protein stability index was 2.25.
In the case of ALEHQAETLQPSVWFGGREHVLMF [L3E], the protein stability index is reported as 1.94.
Work on ALYHQAETLQPSVWFGGREHVLMF [L3Y] yielded a protein stability index of 3.46.
ALPHQAETLQPSVWFGGREHVLMF [L3P] gave a protein stability index of 1.61.
In the case of ALDHQAETLQPSVWFGGREHVLMF [L3D], the protein stability index is reported as 1.87.
ALRHQAETLQPSVWFGGREHVLMF [L3R] showed a protein stability index of 1.62.
Work on ALVHQAETLQPSVWFGGREHVLMF [L3V] yielded a protein stability index of 1.31.
Variant ALCHQAETLQPSVWFGGREHVLMF [L3C] has a protein stability index of 2.26.
In the case of ALGHQAETLQPSVWFGGREHVLMF [L3G], the protein stability index is reported as 2.83.
Variant ALHHQAETLQPSVWFGGREHVLMF [L3H] has a protein stability index of 1.57.
With ALTHQAETLQPSVWFGGREHVLMF [L3T] the protein stability index was 2.37.
For ALAHQAETLQPSVWFGGREHVLMF [L3A], the protein stability index was 1.76.
ALQHQAETLQPSVWFGGREHVLMF [L3Q] gave a protein stability index of 1.54.
ALKHQAETLQPSVWFGGREHVLMF [L3K] gave a protein stability index of 1.71.
With ALLAQAETLQPSVWFGGREHVLMF [H4A] the protein stability index was 1.9.
For QLLHQAETLQPSVWFGGREHVLMF [A1Q], the protein stability index was 2.96.
Variant HLLHQAETLQPSVWFGGREHVLMF [A1H] has a protein stability index of 2.14.
With ILLHQAETLQPSVWFGGREHVLMF [A1I] the protein stability index was 3.59.
In the case of RLLHQAETLQPSVWFGGREHVLMF [A1R], the protein stability index is reported as 1.81.
Work on LLLHQAETLQPSVWFGGREHVLMF [A1L] yielded a protein stability index of 2.58.
FLLHQAETLQPSVWFGGREHVLMF [A1F] showed a protein stability index of 2.59.
Variant ELLHQAETLQPSVWFGGREHVLMF [A1E] has a protein stability index of 1.02.
Work on TLLHQAETLQPSVWFGGREHVLMF [A1T] yielded a protein stability index of 2.38.
For DLLHQAETLQPSVWFGGREHVLMF [A1D], the protein stability index was 1.48.
Variant CLLHQAETLQPSVWFGGREHVLMF [A1C] has a protein stability index of 1.71.
YLLHQAETLQPSVWFGGREHVLMF [A1Y] gave a protein stability index of 2.71.
For PLLHQAETLQPSVWFGGREHVLMF [A1P], the protein stability index was 1.69.
KLLHQAETLQPSVWFGGREHVLMF [A1K] showed a protein stability index of 2.35.
With GLLHQAETLQPSVWFGGREHVLMF [A1G] the protein stability index was 2.95.
Work on AGLHQAETLQPSVWFGGREHVLMF [L2G] yielded a protein stability index of 1.2.
AHLHQAETLQPSVWFGGREHVLMF [L2H] showed a protein stability index of 1.48.
With ACLHQAETLQPSVWFGGREHVLMF [L2C] the protein stability index was 3.82.
With ADLHQAETLQPSVWFGGREHVLMF [L2D] the protein stability index was 2.01.
Work on ASLHQAETLQPSVWFGGREHVLMF [L2S] yielded a protein stability index of 2.83.
For ATLHQAETLQPSVWFGGREHVLMF [L2T], the protein stability index was 1.53.
In the case of AILHQAETLQPSVWFGGREHVLMF [L2I], the protein stability index is reported as 3.26.
Variant APLHQAETLQPSVWFGGREHVLMF [L2P] has a protein stability index of 1.87.
Work on AMLHQAETLQPSVWFGGREHVLMF [L2M] yielded a protein stability index of 1.93.
Variant ANLHQAETLQPSVWFGGREHVLMF [L2N] has a protein stability index of 1.06.
For AQLHQAETLQPSVWFGGREHVLMF [L2Q], the protein stability index was 1.42.
Work on AELHQAETLQPSVWFGGREHVLMF [L2E] yielded a protein stability index of 1.93.
Variant AVLHQAETLQPSVWFGGREHVLMF [L2V] has a protein stability index of 1.3.
AALHQAETLQPSVWFGGREHVLMF [L2A] gave a protein stability index of 2.96.
